US20260209334A1 (MAX PLANCK GESELLSCHAFT ZUR F RDERUNG DER WISSENSCHAFTEN E V, published 2026)
Positions count from the first letter of the chain named. Read-outs that look alike come from different tables or passages of the source.

What was measured:
[1] = target: T1, recombinant human IL-17F (produced in HEK cells, Proteintech HZ-1116) (human, UniProt Q96PD4 31-163); test: cell-based or functional assay
T1 sequence (looked up): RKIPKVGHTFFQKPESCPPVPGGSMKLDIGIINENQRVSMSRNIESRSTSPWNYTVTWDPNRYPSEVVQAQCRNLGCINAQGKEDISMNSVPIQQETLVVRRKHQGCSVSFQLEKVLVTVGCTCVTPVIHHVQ

[2] = target: T2, human IL-17A with C-terminal Avi-tag, biotinylated, immobilized on BLI sensors (human, UniProt Q16552 24-155, biotin on the C-terminal Avi-tag (BirA)); test: BLI, biotinylated IL-17A immobilized on streptavidin sensors, monovalent VHH as analyte (25, 50, 100 nM), mass transport fit
T2 construct: also called biotinylated IL-17A; not shown: C-terminal Avi-tag

[3] = target: T3, recombinant human IL-17A (produced in HEK cells, Proteintech HZ-1113) (human, UniProt Q16552 24-155); test: cell-based or functional assay
[4] = target: T3, recombinant human IL-17A (produced in …); test: cell-based or functional assay; remark: listed apart in the source
[5] = target: T1, recombinant human IL-17F (produced in …); test: cell-based or functional assay; remark: listed apart in the source
[6] = target: recombinant human IL-17A/F (produced in CHO cells, R&D Systems 5837-IL) (human, UniProt Q16552 24-155; Q96PD4 31-163, limits assumed); test: cell-based or functional assay
[7] = target: T2, human IL-17A with C-terminal Avi-tag, …; test: BLI, biotinylated IL-17A immobilized, monovalent VHH as analyte
[8] = target: T4, human IL-17F with C-terminal Avi-tag, biotinylated, immobilized on BLI sensors (human, UniProt Q96PD4 31-163, biotin on the C-terminal Avi-tag (BirA)); test: BLI, biotinylated IL-17F immobilized, monovalent VHH as analyte
T4 construct: also called biotinylated IL-17F; not shown: C-terminal Avi-tag
T4 sequence: T1 sequence (looked up)

[9] = target: T4, human IL-17F with C-terminal Avi-tag, …; test: BLI, biotinylated IL-17F immobilized, monovalent VHH as analyte; 2:1 heterogenous model, high affinity component
[10] = target: T2, human IL-17A with C-terminal Avi-tag, …; test: BLI, biotinylated IL-17A immobilized on streptavidin sensors, monovalent VHH as analyte (20, 100 nM), 2:1 heterogenous fit, low affinity component
[11] = target: T1, recombinant human IL-17F (produced in …); test: cell-based or functional assay; remark: listed apart in the source
[12] = target: T2, human IL-17A with C-terminal Avi-tag, …; test: BLI, biotinylated IL-17A immobilized on streptavidin sensors, monovalent VHH as analyte (25, 50, 100 nM), 2:1 heterogenous fit, high affinity component
[13] = target: T2, human IL-17A with C-terminal Avi-tag, …; test: BLI, biotinylated IL-17A immobilized, monovalent VHH as analyte; 2:1 heterogenous model, high affinity component
[14] = target: T4, human IL-17F with C-terminal Avi-tag, …; test: BLI, biotinylated IL-17F immobilized on streptavidin sensors, monovalent VHH as analyte (20, 100 nM), 2:1 heterogenous fit, low affinity component
[15] = target: T5, human IL-17A homodimer, bacterially expressed construct (residues 40-155 with GSEDS spacer) (human, UniProt Q16552 40-155); test: BLI, VHH immobilized, IL-17 as analyte; apparent KD with avidity; µM as printed (Table 3 uses pM)
T5 chain: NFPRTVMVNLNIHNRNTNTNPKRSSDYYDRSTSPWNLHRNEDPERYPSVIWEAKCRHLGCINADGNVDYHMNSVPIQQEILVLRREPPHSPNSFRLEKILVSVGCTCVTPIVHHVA

[16] = target: T6, human IL-17F homodimer, bacterially expressed construct (residues 39-163 with GSEGE linker) (human, UniProt Q96PD4 39-163); test: as above
T6 construct: also called IL-17F dimer
T6 chain: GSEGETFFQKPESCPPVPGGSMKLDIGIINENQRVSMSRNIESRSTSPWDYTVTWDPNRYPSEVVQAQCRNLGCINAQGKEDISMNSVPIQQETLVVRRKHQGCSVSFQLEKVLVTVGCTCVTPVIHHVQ

[17] = target: T7, human IL-17A/F heterodimer, bacterially expressed construct (human, UniProt Q16552 40-155; Q96PD4 39-163, limits assumed); test: as above
T7 construct: IL-17A unit with N68D, IL-17F unit with N83D and C137S, both with GSEDS spacer; already in the entries

[18] = target: T5, human IL-17A homodimer, bacterially …; test: BLI, biotinylated VHH immobilized on streptavidin sensors, IL-17 as analyte (10, 20, 40 nM), mass transport fit; apparent value, avidity possible
[19] = target: T6, human IL-17F homodimer, bacterially …; test: as above
[20] = target: T7, human IL-17A/F heterodimer, bacterially …; test: as above
[21] = target: T5, human IL-17A homodimer, bacterially …; test: as above
[22] = target: T6, human IL-17F homodimer, bacterially …; test: as above
[23] = target: T7, human IL-17A/F heterodimer, bacterially …; test: as above; remark: listed apart in the source

recombinant human IL-17A/F (produced in CHO cells, R&D Systems 5837-IL), sequence (Q16552 24-155 limits assumed, chain 1 of 2, one chain of several): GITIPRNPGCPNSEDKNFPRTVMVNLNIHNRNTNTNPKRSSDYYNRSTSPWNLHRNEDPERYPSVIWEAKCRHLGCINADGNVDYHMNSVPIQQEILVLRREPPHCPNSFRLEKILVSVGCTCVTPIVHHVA

B1: Bm18F11 (VHH)
VHH: QVQLVESGGDLVQAGGSLRLSCAASGLTGSSYAMGWFRQAPGKEREFVAAISWISGDTKYTDSVKGRFTMSRDNAKKQVYLEMNSLKPEDTAVYYCNDMPYGLDTRMDEYVYWGQGTQVTVSS
notes: Class A, first generation
Q: With B1 as the binder, how does the “IC50 (read off the curve), SEAP reporter, HEK-Blue IL-17 cells, 0.85 nM IL-17F” value [1] read?
A: ~5 nM

Q: And the Kd [2]?
A: 1 nM

B2: Bm44C09 (VHH)
VHH: B1 VHH with D10G, T28A, G29V, D57G, T61A, G66D, E109D, V111K, T117I
notes: Class A, second generation
Q: B2 was tested. Which “IC50 (read off the curve), SEAP reporter, HEK-Blue IL-17 cells, 0.17 nM IL-17A” value [3] did it give?
A: ~2 nM

Q: What about the “Neutralization potency, ranking from 1 = the best to 4 (HEK-Blue IL-17 reporter cells)” value (“Neutralization potency, ranking” below) [4] of the same binder?
A: 4 rank

Q: And the “Neutralization potency, ranking” value [5]?
A: 1 rank

Q: And the “Neutralization potency, ranking” value [6]?
A: 1 rank

Q: And the Kd [7]?
A: 2 nM

Q: And the Kd [8]?
A: 0.1 nM

B3: Re42F08 (VHH)
VHH: QVQLVESGGGLVKAGGSLRLSCVVSGHTSEISAMGWYRQAPGKQRELVALITSRSGDTHYSDSVKGRFSISRDNAKNTMYLQMNSLNPDDTAVYYCVHNEPGHLYMAQGTQVTVSS
notes: Class B, first generation
Q: How did the Kd [9] turn out when B3 was run?
A: 6 nM

Q: And the “Neutralization potency, ranking” value [4]?
A: 2 rank

Q: And the “Neutralization potency, ranking” value [5]?
A: 4 rank

Q: What about the “Neutralization potency, ranking” value [6] of the same binder?
A: 3 rank

Q: What about the KD2 [10] of the same binder?
A: 60 nM

Q: And the “IC50 (read off the curve), SEAP reporter, HEK-Blue IL-17 cells, 0.85 nM IL-17F” value [11]?
A: ~5 nM

Q: What about the Kd [12] of the same binder?
A: 1 nM

Q: And the Kd [13]?
A: 1 nM

Q: What about the KD2 [14] of the same binder?
A: 60 nM

B4: Bm44B04 (VHH)
VHH: QVQLVESGGGLVRTGGSLRLSCSVSGDISSQSAMGWYRQVPGRQRELVAMIHTTKGDTYYADSVKGRFTISRINANNTIYLQMNNLKPEDTAIYYCTHNEPGDLYMGQGTQVTVSS
notes: Class B, second generation
Q: Which results are given for B4?
A: Kd [9]: 0.35 nM; Neutralization potency, ranking from 1 = the best to 4 (HEK-Blue IL-17 reporter cells) [4]: 2 rank; Neutralization potency, ranking from 1 = the best to 4 (HEK-Blue IL-17 reporter cells) [5]: 2 rank; Neutralization potency, ranking from 1 = the best to 4 (HEK-Blue IL-17 reporter cells) [6]: 1 rank; KD2 [10]: 25 nM; Kd [13]: 0.6 nM; KD2 [14]: 20 nM

B5: Bm44G07 (VHH)
VHH: B4 VHH with E6Q, R13Q, G66D, Y80H
notes: Class B, second generation
Q: B5 was tested. Which Kd [9] did it give?
A: 1 nM

Q: And the “Neutralization potency, ranking” value [4]?
A: 3 rank

Q: What about the “Neutralization potency, ranking” value [5] of the same binder?
A: 1 rank

Q: What about the “Neutralization potency, ranking” value [6] of the same binder?
A: 4 rank

Q: What about the KD2 [10] of the same binder?
A: 120 nM

Q: And the Kd [13]?
A: 3 nM

Q: And the KD2 [14]?
A: 40 nM

B6: Bm18F11 with C-terminal Avi-Biotin-tag, biotinylated (VHH)
VHH: B1 VHH
modifications: biotin on the C-terminal Avi-tag (BirA)
notes: not shown: C-terminal Avi-Biotin-tag
Q: Which Kd [15] does the source give for B6 here?
A: ≤ 20000 nM

Q: And the Kd [16]?
A: ≤ 20000 nM

Q: What about the Kd [17] of the same binder?
A: ≤ 20000 nM

Q: What about the Kd [18] of the same binder?
A: ≤ 0.01 nM

Q: And the koff [18]?
A: ≤ 1e-07 s⁻¹

Q: And the kon [18]?
A: 95000 M⁻¹ s⁻¹

Q: And the Kd [19]?
A: ≤ 0.01 nM

Q: And the koff [19]?
A: ≤ 1e-07 s⁻¹

Q: What about the kon [19] of the same binder?
A: 150000 M⁻¹ s⁻¹

Q: And the Kd [20]?
A: ≤ 0.01 nM

Q: And the koff [20]?
A: ≤ 1e-07 s⁻¹

Q: What about the kon [20] of the same binder?
A: 280000 M⁻¹ s⁻¹

B7: Bm18B05 with C-terminal Avi-Biotin-tag, biotinylated (VHH)
VHH: QVQLVESGGGLVQPGGSLRLSCAVSGRTFSSYAMGWFRRPPGKEREFVAAISWSGGDTKYADFVTDRFTISRDDAKSTVYLQMNSLKPEDTAVYYCNDMPYGLDTRMDEYEYWGQGTQVTVSS
modifications: biotin on the C-terminal Avi-tag (BirA)
notes: as for B6
Q: How did the Kd [15] turn out when B7 was run?
A: ≤ 20000 nM

Q: What about the Kd [16] of the same binder?
A: ≤ 20000 nM

Q: And the Kd [17]?
A: ≤ 20000 nM

Q: And the Kd [18]?
A: ≤ 0.01 nM

Q: What about the koff [18] of the same binder?
A: ≤ 1e-07 s⁻¹

Q: What about the kon [18] of the same binder?
A: 260000 M⁻¹ s⁻¹

Q: And the Kd [19]?
A: ≤ 0.01 nM

Q: What about the koff [19] of the same binder?
A: ≤ 1e-07 s⁻¹

Q: What about the kon [19] of the same binder?
A: 86000 M⁻¹ s⁻¹

Q: And the Kd [20]?
A: ≤ 0.01 nM

Q: What about the koff [20] of the same binder?
A: ≤ 1e-07 s⁻¹

Q: What about the kon [20] of the same binder?
A: 120000 M⁻¹ s⁻¹

B8: Bm17B02 with C-terminal Avi-Biotin-tag, biotinylated (VHH)
VHH: B3 VHH with K13N, A14T
modifications: biotin on the C-terminal Avi-tag (BirA)
notes: as for B6
Q: For B8, which Kd [15] is on record?
A: ≤ 20000 nM

Q: What about the Kd [16] of the same binder?
A: ≤ 20000 nM

Q: What about the Kd [17] of the same binder?
A: ≤ 20000 nM

Q: What about the Kd [21] of the same binder?
A: ≤ 0.01 nM

Q: What about the koff [21] of the same binder?
A: ≤ 1e-07 s⁻¹

Q: What about the kon [21] of the same binder?
A: 220000 M⁻¹ s⁻¹

Q: And the Kd [22]?
A: 0.02 nM

Q: What about the koff [22] of the same binder?
A: 5.4e-05 s⁻¹

Q: And the kon [22]?
A: 750000 M⁻¹ s⁻¹

Q: And the Kd [23]?
A: ≤ 0.01 nM

Q: And the koff [23]?
A: ≤ 1e-07 s⁻¹

Q: And the kon [23]?
A: 1.4e+06 M⁻¹ s⁻¹

B9: Re42F08 with C-terminal Avi-Biotin-tag, biotinylated (VHH)
VHH: B3 VHH
modifications: biotin on the C-terminal Avi-tag (BirA)
notes: as for B6
Q: For B9, which Kd [15] is on record?
A: ≤ 20000 nM

Q: And the Kd [16]?
A: ≤ 20000 nM

Q: And the Kd [17]?
A: ≤ 20000 nM

Q: And the Kd [21]?
A: ≤ 0.01 nM

Q: And the koff [21]?
A: ≤ 1e-07 s⁻¹

Q: What about the kon [21] of the same binder?
A: 160000 M⁻¹ s⁻¹

Q: And the Kd [22]?
A: 0.02 nM

Q: And the koff [22]?
A: ≤ 1e-07 s⁻¹

Q: What about the kon [22] of the same binder?
A: 500000 M⁻¹ s⁻¹

Q: What about the Kd [23] of the same binder?
A: ≤ 0.01 nM

Q: What about the koff [23] of the same binder?
A: ≤ 1e-07 s⁻¹

Q: What about the kon [23] of the same binder?
A: 510000 M⁻¹ s⁻¹

B10: Bm17B02 (VHH)
VHH: B3 VHH with K13N, A14T
notes: Class B, first generation; For the crystal it was made with a His14-ScSUMO tag that was cleaved off
Q: B10 was tested. Which Kd [12] did it give?
A: 0.7 nM
